Laboratory results published in paper PMC5643300.

Assays:
[1] = target: MOSP expressed in E. coli with a PelB signal sequence (Treponema denticola); assay: native gel or EMSA; BN-PAGE and immunoblot of the 2% DDM extract of the outer membrane fraction of E. coli expressing PelB-MOSP
[2] = target: MOSP^C, C-terminal domain of the major outer sheath protein (recombinant, refolded) (Treponema denticola); assay: SEC + other: negative-stain TEM of nanodiscs; MOSP^C incorporated into small D7 DMPC nanodiscs, S200 column, Tris-NaCl buffer pH 7.5; peaks examined by SDS-PAGE and TEM
[3] = target: MOSP^C, C-terminal domain of the major outer sheath protein (recombinant, refolded) (Treponema denticola); assay: negative-stain TEM of nanodiscs; MOSP^C refolded in DDM and incorporated into large MSP1E3D1 (E3D1) DMPC nanodiscs; SEC peak fractions, uranyl formate stain, averaged images
[4] = target: major outer sheath protein, native outer membrane conformer (Treponema denticola ATCC 35405 (endogenous)); assay: SDS-PAGE without boiling, immunoblot; NP-40 supernatant (OM conformer) and TX-114 aqueous phase (periplasmic conformer) of T. denticola in Laemmli buffer, with and without boiling; antisera to MOSP^Fl, PrtP, PrcA1, PrcA2, PrcB
[5] = target: major outer sheath protein, native outer membrane conformer (Treponema denticola ATCC 35405 (endogenous)); assay: SDS-PAGE without boiling, immunoblot; 2% DDM-solubilized pellet of sonicated T. denticola, run with and without boiling, anti-MOSP^Fl; TX-114 phase partitioning of the same material
[6] = target: major outer sheath protein, native periplasmic conformer (Treponema denticola ATCC 35405 (endogenous)); assay: SDS-PAGE without boiling, immunoblot; NP-40 supernatant (OM conformer) and TX-114 aqueous phase (periplasmic conformer) of T. denticola in Laemmli buffer, with and without boiling; antisera to MOSP^Fl, PrtP, PrcA1, PrcA2, PrcB
[7] = target: major outer sheath protein, native periplasmic conformer (Treponema denticola ATCC 35405 (endogenous)); assay: SDS-PAGE without boiling, immunoblot; 2% DDM-solubilized pellet of sonicated T. denticola, run with and without boiling, anti-MOSP^Fl; TX-114 phase partitioning of the same material

“MOSP expressed in E. coli with a PelB signal sequence (natural protein)” was tested, and the stoichiometry N [1] was 3.

“MOSP^C, C-terminal domain of the major outer sheath protein (recombinant, refolded) (domain or fragment)” showed a stoichiometry N [2] of 3 and a stoichiometry N [3] of 3.

“major outer sheath protein, native outer membrane conformer (natural protein)” gave a stoichiometry N [4] of 3 and a stoichiometry N [5] of 3.

For “major outer sheath protein, native periplasmic conformer (natural protein)”, the stoichiometry N [6] was 3 and the stoichiometry N [7] was 3.
